According to article PMC3445539:
One block for each substance: values may come before it.

Key:
mCherry-CENP-P [1] = biological target: mCherry-CENP-P (UniProt Q6IPU0); test: FRET or BRET; FLIM: donor fluorescence lifetime by time-correlated single photon counting at kinetochores of living HEp-2 cells, EGFP donor and mCherry acceptor
mCherry-CENP-P [2] = biological target: mCherry-CENP-P (UniProt Q6IPU0); test: fluorescence cross-correlation spectroscopy (FCCS); nucleoplasm free of kinetochores in living double-transfected U2OS cells, EGFP and mCherry fusions, 37°C
mCherry-CENP-O (human) = mCherry-CENP-O (human) (UniProt Q9BU64); test: FRET or BRET; FLIM: donor fluorescence lifetime by time-correlated single photon counting at kinetochores of living HEp-2 cells, EGFP donor and mCherry acceptor
UniProt Q9BU64, sequence (Q9BU64 whole entry): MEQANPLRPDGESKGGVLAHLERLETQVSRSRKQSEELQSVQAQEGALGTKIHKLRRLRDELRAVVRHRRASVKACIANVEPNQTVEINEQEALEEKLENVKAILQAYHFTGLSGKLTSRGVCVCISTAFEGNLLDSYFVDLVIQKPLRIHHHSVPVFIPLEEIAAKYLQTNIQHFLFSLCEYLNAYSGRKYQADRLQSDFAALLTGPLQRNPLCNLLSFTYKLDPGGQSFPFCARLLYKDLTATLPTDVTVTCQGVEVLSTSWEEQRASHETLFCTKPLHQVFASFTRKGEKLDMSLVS

donor fluorescence lifetime in the presence of the acceptor (mCherry-CENP-P [1]): 2.08 nsec
Substance: CENP-Q-EGFP (from UniProt Q7L2Z9 1-268) (natural protein)

percent hetero-dimers, A(CC)/A(AC) (mCherry-CENP-P [2]): 20 to 30%
percent of the molecules co-migrating (cross-correlation amplitude over mCherry amplitude) (mCherry-CENP-P [2]): 29%
Substance: EGFP-CENP-O (from UniProt Q9BU64 1-300) (natural protein)

Substance: EGFP-CENP-O
percent hetero-dimers, the authors' corrected estimate (mCherry-CENP-P [2]; other: fluorescence cross-correlation spectroscopy (FCCS)): we estimate 40–60%

donor fluorescence lifetime in the presence of the acceptor (mCherry-CENP-O (human)): 2.16 nsec
Substance: CENP-P-EGFP (from UniProt Q6IPU0 1-288) (natural protein)
